Measurements as given in paper doi:10.1101/2021.12.30.474394.

B1: WT Siah2 (enzyme)
chain: MSRPSSTGPSANKPCSKQPPPQPQHTPSPAAPPAAATISAAGPGSSAVPAAAAVISGPGGGGGAGPVSPQHHELTSLFECPVCFDYVLPPILQCQAGHLVCNQCRQKLSCCPTCRGALTPSIRNLAMEKVASAVLFPCKYATTGCSLTLHHTEKPEHEDICEYRPYSCPCPGASCKWQGSLEAVMSHLMHAHKSITTLQGEDIVFLATDINLPGAVDWVMMQSCFGHHFMLVLEKQEKYEGHQQFFAIVLLIGTRKQAENFAYRLELNGNRRRLTWEATPRSIHDGVAAAIMNSDCLVFDTAIAHLFADNGNLGINVTISTCCP
B2: DN Siah1C75S (enzyme)
chain: MSRQTATALPTGTSKCPPSQRVPALTGTTASNNDLASLFECPVCFDYVLPPILQCQSGHLVCSNCRPKLTCCPTSRGPLGSIRNLAMEKVANSVLFPCKYASSGCEITLPHTEKADHEELCEFRPYSCPCPGASCKWQGSLDAVMPHLMHQHKSITTLQGEDIVFLATDINLPGAVDWVMMQSCFGFHFMLVLEKQEKYDGHQQFFAIVQLIGTRKQAENFAYRLELNGHRRRLTWEATPRSIHEGIATAIMNSDCLVFDTSIAQLFAENGNLGINVTISMC

What was measured:
mutant CycT14MUT = mutant CycT14MUT (UniProt O60563); experiment: co-IP
mutant CycT14MUT(280) = mutant CycT14MUT(280) (UniProt O60563); experiment: co-IP

| Binder | fold change of co-IP against WT CycT1 (mutant CycT14MUT) [fold] | fold change of co-IP against WT CycT1(280) (mutant CycT14MUT(280)) [fold] |
| --- | --- | --- |
| B1 | 8.3 | 8.9 |
| B2 | 5.7 | 5.1 |
